From publication PMC9724675, “POPDC1 scaffolds a complex of adenylyl cyclase 9 and the potassium channel TREK‐1 in heart” (EMBO Reports, 2022)

Molecular target: T1, POPDC1-Myc (Popeye domain-containing protein 1, Myc-tagged) (mouse, UniProt Q9ES83 1-358)
T1 construct: POPDC1 (Bves), mouse; construct described in Froese et al 2012 and Schindler et al 2016b; Mouse is stated for the BiFC constructs, which were made from the previously described tagged constructs; also called Myc-tagged POPDC1; BVES; source: HEK293 or COS-7, transfected, in cells or in lysate
T1 sequence (looked up): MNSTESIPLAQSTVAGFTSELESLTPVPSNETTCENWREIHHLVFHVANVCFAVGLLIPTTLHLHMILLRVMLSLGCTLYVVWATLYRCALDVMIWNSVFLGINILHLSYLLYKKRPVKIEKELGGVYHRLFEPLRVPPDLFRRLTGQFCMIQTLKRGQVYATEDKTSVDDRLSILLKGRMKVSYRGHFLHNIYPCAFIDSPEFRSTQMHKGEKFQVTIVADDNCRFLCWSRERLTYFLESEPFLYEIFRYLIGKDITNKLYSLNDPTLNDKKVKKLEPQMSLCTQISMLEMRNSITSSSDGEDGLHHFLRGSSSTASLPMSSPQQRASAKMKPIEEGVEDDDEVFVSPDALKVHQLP
Test: co-IP; IP-AC assay: HEK293 lysates expressing AC1 or AC8 with or without Myc-tagged POPDC1, immunoprecipitation with anti-MYC, AC activity stimulated with 100 μM calcium and 300 nM calmodulin
Details: partners not purified

B1: nontagged AC1 (adenylyl cyclase 1) (enzyme)
chain: not shown
notes: adenylyl cyclase 1 (AC1), Ca2+/calmodulin-stimulated; the plasmid is not described; source: HEK293, transfected, in lysate
fold Ca2+/calmodulin-stimulated AC activity in the POPDC1 immunoprecipitate over IgG controls: 1.59 ± 0.05 fold
